Measurements taken from PMC13123425, “A mutant complement factor H (W1183R) enhances proteolytic cleavage of von Willebrand factor by ADAMTS-13 under shear” (Journal of thrombosis and haemostasis : JTH, 2025).

Molecular target: purified human recombinant von Willebrand factor (multimeric) (human, UniProt P04275 764-2813)
Experiment: cell-based or functional assay

B1: human recombinant W1183R complement factor H (natural protein, UniProt P08603 19-1231, looked up)
chain: EDCNELPPRRNTEILTGSWSDQTYPEGTQAIYKCRPGYRSLGNVIMVCRKGEWVALNPLRKCQKRPCGHPGDTPFGTFTLTGGNVFEYGVKAVYTCNEGYQLLGEINYRECDTDGWTNDIPICEVVKCLPVTAPENGKIVSSAMEPDREYHFGQAVRFVCNSGYKIEGDEEMHCSDDGFWSKEKPKCVEISCKSPDVINGSPISQKIIYKENERFQYKCNMGYEYSERGDAVCTESGWRPLPSCEEKSCDNPYIPNGDYSPLRIKHRTGDEITYQCRNGFYPATRGNTAKCTSTGWIPAPRCTLKPCDYPDIKHGGLYHENMRRPYFPVAVGKYYSYYCDEHFETPSGSYWDHIHCTQDGWSPAVPCLRKCYFPYLENGYNQNYGRKFVQGKSIDVACHPGYALPKAQTTVTCMENGWSPTPRCIRVKTCSKSSIDIENGFISESQYTYALKEKAKYQCKLGYVTADGETSGSITCGKDGWSAQPTCIKSCDIPVFMNARTKNDFTWFKLNDTLDYECHDGYESNTGSTTGSIVCGYNGWSDLPICYERECELPKIDVHLVPDRKKDQYKVGEVLKFSCKPGFTIVGPNSVQCYHFGLSPDLPICKEQVQSCGPPPELLNGNVKEKTKEEYGHSEVVEYYCNPRFLMKGPNKIQCVDGEWTTLPVCIVEESTCGDIPELEHGWAQLSSPPYYYGDSVEFNCSESFTMIGHRSITCIHGVWTQLPQCVAIDKLKKCKSSNLIILEEHLKNKKEFDHNSNIRYRCRGKEGWIHTVCINGRWDPEVNCSMAQIQLCPPPPQIPNSHNMTTTLNYRDGEKVSVLCQENYLIQEGEEITCKDGRWQSIPLCVEKIPCSQPPQIEHGTINSSRSSQESYAHGTKLSYTCEGGFRISEENETTCYMGKWSSPPQCEGLPCKSPPEISHGVVAHMSDSYQYGEEVTYKCFEGFGIDGPAIAKCLGEKWSHPPSCIKTDCLSLPSFENAIPMGEKKDVYKAGEQVTYTCATYYKMDGASNVTCINSRWTGRPTCRDTSCVNPPTVQNAYIVSRQMSKYPSGERVRYQCRSPYEMFGDEEVMCLNGNWTEPPQCKDSTGKCGPPPPIDNGDITSFPLSVYAPASSVEYQCQNLYQLEGNKRITCRNGQWSEPPKCLHPCVISREIMENYNIALRRTAKQKLYSRTGESVEFVCKRGYRLSSRSHTLRTTCWDGKLEYPTCAKR
B1 was tested, and the “cleavage product (~350 kD band) of multimeric VWF by recombinant ADAMTS-13 under vortexing-induced shear, with 0–2 μM W1183R-CFH” value was roughly 2 fold.
